From patent US20230365662A1
Positions count from the first letter of the chain named. Names and notes keep the numbering of the source. Values joined by “and” are separate entries in the source; they are usually repeats but may differ in a detail not shown here. Identical values can stand only once.

B1: KB001 mouse Fab FASEBA VH S30N (Fab, V domains shown)
VH: EVQLKQSGPGLVAPSQSLSITCTVSGFSLNIYSVHWVRQPPGKGLEWLGMIWGGGSSDYNSALKSRLSISKDNSKSQVFLKMNSLQTDDTAMYYCARNGNFYAMDYWGQGTSVTVSS
VL: QIVLTQSPAIMSASLGERVTMTCTASSSVSSSFLHWYQQKPGSSPQLWIYSTSNLASGVPARFSGSGSGTSYSLTISSMEAEDAATYYCHQYHHSPYIYTFGGGTKLEIK
B2: KB001 mouse Fab FASEBA VH S30G (Fab, V domains shown)
VH: B1 VH with N30G
VL: B1 VL
B3: KB001 mouse Fab FASEBA VH I31T (Fab, V domains shown)
VH: B1 VH with N30S, I31T
VL: B1 VL
B4: KB001 mouse Fab FASEBA VH S57A (Fab, V domains shown)
VH: B1 VH with N30S, S57A
VL: B1 VL
B5: KB001 mouse Fab FASEBA VH S61Q (Fab, V domains shown)
VH: B1 VH with N30S, S61Q
VL: B1 VL
B6: KB001 mouse Fab FASEBA VH Y106Q (Fab, V domains shown)
VH: B1 VH with N30S, Y106Q
VL: B1 VL
B7: KB001 mouse Fab FASEBA VH Y106F (Fab, V domains shown)
VH: B1 VH with N30S, Y106F
VL: B1 VL
B8: KB001 mouse Fab FASEBA VH S61T (Fab, V domains shown)
VH: B1 VH with N30S, S61T
VL: B1 VL
B9: KB001 mouse Fab FASEBA VH G99Y (Fab, V domains shown)
VH: B1 VH with N30S, G99Y
VL: B1 VL
B10: KB001 mouse Fab FASEBA VH I31V (Fab, V domains shown)
VH: B1 VH with N30S, I31V
VL: B1 VL
B11: KB001 mouse Fab FASEBA VH A103S (Fab, V domains shown)
VH: B1 VH with N30S, A103S
VL: B1 VL
B12: KB001 mouse Fab FASEBA VH G26D (Fab, V domains shown)
VH: B1 VH with G26D, N30S
VL: B1 VL
B13: KB001 mouse Fab FASEBA VH S57Q (Fab, V domains shown)
VH: B1 VH with N30S, S57Q
VL: B1 VL
B14: KB001 mouse Fab FASEBA VH Y106R (Fab, V domains shown)
VH: B1 VH with N30S, Y106R
VL: B1 VL
B15: KB001 mouse Fab FASEBA VH S61D (Fab, V domains shown)
VH: B1 VH with N30S, S61D
VL: B1 VL
B16: KB001 mouse Fab FASEBA VH N100E (Fab, V domains shown)
VH: B1 VH with N30S, N100E
VL: B1 VL
B17: KB001 mouse Fab FASEBA VH S57V (Fab, V domains shown)
VH: B1 VH with N30S, S57V
VL: B1 VL
B18: KB001 mouse Fab FASEBA VH K64A (Fab, V domains shown)
VH: B1 VH with N30S, K64A
VL: B1 VL
B19: KB001 mouse Fab FASEBA VH Y59V (Fab, V domains shown)
VH: B1 VH with N30S, Y59V
VL: B1 VL
B20: KB001 mouse Fab FASEBA VH I31M (Fab, V domains shown)
VH: B1 VH with N30S, I31M
VL: B1 VL
B21: KB001 mouse Fab FASEBA VH S30A (Fab, V domains shown)
VH: B1 VH with N30A
VL: B1 VL
B22: KB001 mouse Fab FASEBA VH S65V (Fab, V domains shown)
VH: B1 VH with N30S, S65V
VL: B1 VL
B23: KB001 mouse Fab FASEBA VH Y106S (Fab, V domains shown)
VH: B1 VH with N30S, Y106S
VL: B1 VL
B24: KB001 mouse Fab FASEBA VH Y106L (Fab, V domains shown)
VH: B1 VH with N30S, Y106L
VL: B1 VL
B25: KB001 mouse Fab FASEBA VH V34I (Fab, V domains shown)
VH: B1 VH with N30S, V34I
VL: B1 VL
B26: KB001 mouse Fab FASEBA VH Y106M (Fab, V domains shown)
VH: B1 VH with N30S, Y106M
VL: B1 VL
B27: KB001 mouse Fab FASEBA VH S30Y (Fab, V domains shown)
VH: B1 VH with N30Y
VL: B1 VL
B28: KB001 mouse Fab FASEBA VH Y106V (Fab, V domains shown)
VH: B1 VH with N30S, Y106V
VL: B1 VL
B29: KB001 mouse Fab FASEBA VH S28E (Fab, V domains shown)
VH: B1 VH with S28E, N30S
VL: B1 VL
B30: KB001 mouse Fab FASEBA VH S28P (Fab, V domains shown)
VH: B1 VH with S28P, N30S
VL: B1 VL
B31: KB001 mouse Fab FASEBA VH Y106W (Fab, V domains shown)
VH: B1 VH with N30S, Y106W
VL: B1 VL
B32: KB001 mouse Fab FASEBA VH K64R (Fab, V domains shown)
VH: B1 VH with N30S, K64R
VL: B1 VL
B33: KB001 mouse Fab FASEBA VH S65D (Fab, V domains shown)
VH: B1 VH with N30S, S65D
VL: B1 VL
B34: KB001 mouse Fab FASEBA VH Y106I (Fab, V domains shown)
VH: B1 VH with N30S, Y106I
VL: B1 VL
B35: KB001 mouse Fab FASEBA VH S61N (Fab, V domains shown)
VH: B1 VH with N30S, S61N
VL: B1 VL
B36: KB001 mouse Fab FASEBA VH S65T (Fab, V domains shown)
VH: B1 VH with N30S, S65T
VL: B1 VL
B37: KB001 mouse Fab FASEBA VH Y106T (Fab, V domains shown)
VH: B1 VH with N30S, Y106T
VL: B1 VL
B38: KB001 mouse Fab FASEBA VH G99S (Fab, V domains shown)
VH: B1 VH with N30S, G99S
VL: B1 VL
B39: KB001 mouse Fab FASEBA VH S56A (Fab, V domains shown)
VH: B1 VH with N30S, S56A
VL: B1 VL
B40: KB001 mouse Fab FASEBA VH Y106N (Fab, V domains shown)
VH: B1 VH with N30S, Y106N
VL: B1 VL
B41: KB001 mouse Fab FASEBA VH Y106A (Fab, V domains shown)
VH: B1 VH with N30S, Y106A
VL: B1 VL
B42: KB001 mouse Fab FASEBA VH Y106K (Fab, V domains shown)
VH: B1 VH with N30S, Y106K
VL: B1 VL

These binders were tested against HRgpA-6H (Porphyromonas gingivalis) (UniProt P28784) (assay: ELISA on coated HRgpA-6H).
Sequence of UniProt P28784 (P28784 228-991 limits assumed): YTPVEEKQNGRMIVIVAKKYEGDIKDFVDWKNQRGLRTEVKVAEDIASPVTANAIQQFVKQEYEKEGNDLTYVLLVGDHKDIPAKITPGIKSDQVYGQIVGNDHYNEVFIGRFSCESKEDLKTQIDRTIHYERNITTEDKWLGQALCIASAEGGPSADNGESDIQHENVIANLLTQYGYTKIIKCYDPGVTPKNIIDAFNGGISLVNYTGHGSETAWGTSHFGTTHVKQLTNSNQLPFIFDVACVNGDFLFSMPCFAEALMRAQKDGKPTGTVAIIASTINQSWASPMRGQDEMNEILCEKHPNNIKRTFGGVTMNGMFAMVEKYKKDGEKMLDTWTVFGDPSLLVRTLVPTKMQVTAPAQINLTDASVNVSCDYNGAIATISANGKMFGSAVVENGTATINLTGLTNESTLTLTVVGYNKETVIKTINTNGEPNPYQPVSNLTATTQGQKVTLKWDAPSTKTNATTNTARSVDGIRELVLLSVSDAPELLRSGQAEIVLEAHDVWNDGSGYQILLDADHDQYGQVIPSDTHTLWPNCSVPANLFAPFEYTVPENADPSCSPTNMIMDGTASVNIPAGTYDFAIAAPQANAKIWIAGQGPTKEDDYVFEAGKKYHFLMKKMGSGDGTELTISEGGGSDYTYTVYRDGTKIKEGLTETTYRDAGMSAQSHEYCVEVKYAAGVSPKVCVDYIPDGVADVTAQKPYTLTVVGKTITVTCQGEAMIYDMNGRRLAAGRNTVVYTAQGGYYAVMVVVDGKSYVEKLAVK

Binder | OD450nm | Ratio OD(Variant)/OD(WT)
B1 | 0.565 and 0.56 | 1.12 and 1.11
B2 | 0.533 and 0.515 | 1.06 and 1.02
B3 | 0.56 and 0.534 | 1.11 and 1.06
B4 | 0.922 | 1.05
B5 | 0.634 | 1.28
B6 | 0.792 | 1.03
B7 | 0.815 and 0.856 | 1.06 and 1.11
B8 | 0.543 and 0.447 | 1.1 and 0.906
B9 | 0.835 | 1.05
B10 | 0.537 and 0.521 | 1.06 and 1.03
B11 | 0.909 | 1.05
B12 | 0.47 and 0.481 | 0.925 and 0.947
B13 | 0.915 and 0.863 and 0.836 | 1.04 and 0.981 and 0.951
B14 | 0.793 | 1.03
B15 |  | 1.14 and 1.11 (2×) and 0.956
B16 | 0.886 | 1.05
B17 | 0.911 and 0.869 | 1.04 and 0.988
B18 | 0.89 | 1.08
B19 | 0.83 and 0.79 | 1.05 and 0.999
B20 | 0.522 | 1.03
B21 | 0.534 and 0.499 and 0.494 | 1.06 and 0.989 and 0.979

Binder | OD450nm | Ratio OD(Variant)/OD(WT)
B22 | 0.867 | 1.05
B23 | 0.852 and 0.849 | 1.11 and 1.1
B24 | 0.791 | 1.03
B25 | 0.891 and 0.868 and 0.866 | 1.08 and 1.05 (2×)
B26 | 0.794 and 0.84 | 1.03 and 1.09
B27 | 0.53 and 0.488 | 1.05 and 0.967
B28 | 0.795 and 0.84 and 0.802 | 1.03 and 1.09 and 1.04
B29 | 0.561 and 0.551 and 0.494 | 1.04 and 1.02 and 0.915
B30 | 0.545 and 0.452 and 0.514 | 1.01 and 0.837 and 0.952
B31 | 0.791 and 0.809 and 0.82 | 1.03 and 1.05 and 1.07
B32 | 0.87 | 1.05
B33 | 0.866 and 0.897 | 1.05 and 1.08
B34 | 0.803 | 1.04
B35 | 0.537 | 1.09
B36 | 0.883 | 1.07
B37 | 0.827 | 1.07
B38 | 0.809 | 1.01
B39 | 0.891 and 0.86 and 0.82 | 1.01 and 0.978 and 0.932
B40 | 0.792 | 1.03
B41 | 0.821 and 0.835 | 1.07 and 1.09
B42 | 0.807 | 1.05
